According to patent US6528295:

Biological target: Protein Phosphatase Methylesterase-1 (PME-1), endogenous protein of NIH3T3 cells (mouse) (UniProt Q8BVQ5)
Assay: anti-HA co-immunoprecipitation, silver-stained 2D gel

Chain of Protein Phosphatase Methylesterase-1 (PME-1), endogenous protein of NIH3T3 cells (mouse) (Q8BVQ5 whole entry): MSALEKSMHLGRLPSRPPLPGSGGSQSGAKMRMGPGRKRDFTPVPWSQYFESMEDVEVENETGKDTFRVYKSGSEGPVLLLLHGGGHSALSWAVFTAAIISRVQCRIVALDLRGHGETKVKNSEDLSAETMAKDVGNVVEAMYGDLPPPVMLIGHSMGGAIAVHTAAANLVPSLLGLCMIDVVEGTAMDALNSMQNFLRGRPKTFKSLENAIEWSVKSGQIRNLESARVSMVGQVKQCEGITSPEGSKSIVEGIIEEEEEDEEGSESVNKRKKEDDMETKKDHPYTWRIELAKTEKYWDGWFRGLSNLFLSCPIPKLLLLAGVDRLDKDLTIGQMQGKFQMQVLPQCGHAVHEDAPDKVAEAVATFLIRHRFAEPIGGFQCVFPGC

HA-tagged PP2A C subunit mutant H118Q (from UniProt P67775 1-309) (enzyme)
stoichiometry of PME-1 to the A and C subunits in the immunoprecipitate: 1
